{
  "source": "paper PMC5739299",
  "about": "(Molecular Biology of the Cell, 2017)",
  "target": "T1, Alcadein α-FLAG, wild type, dephosphorylated with λPPase (human, UniProt O94985-2 29-971, dephosphorylated with λPPase on the beads)",
  "T1 sequence (looked up)": "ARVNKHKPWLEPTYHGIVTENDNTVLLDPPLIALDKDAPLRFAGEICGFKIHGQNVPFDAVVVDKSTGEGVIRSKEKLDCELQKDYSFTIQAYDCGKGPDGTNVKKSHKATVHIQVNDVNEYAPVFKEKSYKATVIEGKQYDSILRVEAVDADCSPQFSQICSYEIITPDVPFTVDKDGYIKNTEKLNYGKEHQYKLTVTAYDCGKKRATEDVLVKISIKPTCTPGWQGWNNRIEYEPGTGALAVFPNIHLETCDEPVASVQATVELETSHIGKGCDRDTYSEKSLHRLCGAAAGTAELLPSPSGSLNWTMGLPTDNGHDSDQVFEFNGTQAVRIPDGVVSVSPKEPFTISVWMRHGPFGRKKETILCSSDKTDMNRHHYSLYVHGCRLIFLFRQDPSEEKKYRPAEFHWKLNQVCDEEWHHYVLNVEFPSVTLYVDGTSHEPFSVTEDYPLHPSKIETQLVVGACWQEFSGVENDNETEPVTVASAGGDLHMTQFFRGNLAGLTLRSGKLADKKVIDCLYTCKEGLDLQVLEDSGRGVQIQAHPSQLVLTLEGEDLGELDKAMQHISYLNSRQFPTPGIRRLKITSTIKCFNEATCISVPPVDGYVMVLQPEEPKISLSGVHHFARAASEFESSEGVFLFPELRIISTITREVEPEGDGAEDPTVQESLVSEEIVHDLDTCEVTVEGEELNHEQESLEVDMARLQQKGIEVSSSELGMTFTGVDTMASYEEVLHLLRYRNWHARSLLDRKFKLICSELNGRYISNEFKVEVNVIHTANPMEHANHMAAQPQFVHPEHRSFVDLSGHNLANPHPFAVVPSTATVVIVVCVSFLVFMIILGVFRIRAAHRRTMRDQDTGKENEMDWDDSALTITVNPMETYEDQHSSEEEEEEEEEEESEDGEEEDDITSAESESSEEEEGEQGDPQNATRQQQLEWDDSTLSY",
  "assay": "pull-down",
  "data": [
    {"binder": "HA-KLC1 (kinesin light chain 1) (natural protein, UniProt O88447 1-541, looked up) MYDNMSTMVYIKEEKLENVTQDEIISKTKQVIQGLEALKNEHNSILQSLLETLKCLKKDDESNLVEEKSSMIRKSLEMLELGLSEAQVMMALSNHLNAVESEKQNVRAQVRRLCQENQWLRDELANTQQKLQKSEQSVAQLEEEKKHLEFMNQLKKYDDDISPSEDKDSDSSKEPLDDLFPNDEDEPGQGIQHSDSSAAAARQGYEIPARLRTLHNLVIQYASQGRYEVAVPSCKQALEDLEKTSGHDHPDVATMLNILALVYRDQNKYKDAANLLNDALAIREKTLGRDHPAVAATLNNLAVLYGKRGKYKEAEPLCKRALEIREKVLGKDHPDVAKQLNNLALLCQNQGKYEEVEYYYQRALGIYQTKLGPDRTPNVAKTKNNLASCYLKQGKFKQAETLYKEILTRAHEAEFGSVDDENKPIWMHAEEREECKGKQKDGSAFGEYGGWYKACKVDSPTVTTTLKNLGALYRRQGKFEAAETLEEAAMRSRKQGLDNVHKQRVAEVLNDPESMEKRRSRESLNMDVVKYESGPDGGEEA", "values": [
      {"measurement": "recovery of HA-KLC1 relative to Alcα-FLAG without λPPase treatment", "value": "~20", "unit": "%"}
    ]}
  ]
}
